The source of these data is PMC6849236.

For assay [1], the target named is CBM3-CtCoh-CcsCoh-RfCoh synthetic mini-scaffoldin (C. thermocellum ATCC 27405 | C. cellulovorans ATCC 35296 | R. flavefaciens). The assay is described as follows: pull-down; RAC pull-down: cell lysate supernatants of dockerin-containing enzymes (in slight excess) mixed with 0.5 mL cell lysate supernatant of CBM3-Scaf3, 2 mg RAC added, room temperature 5 min; RAC pellet washed three times in 100 mM HEPES pH 7.5, 50 mM NaCl, 1 mM CaCl2; 12% SDS-PAGE, band intensities.

For assay [2] the target is unchanged.

Chain of CDP-CtDoc (A3DH67 whole entry): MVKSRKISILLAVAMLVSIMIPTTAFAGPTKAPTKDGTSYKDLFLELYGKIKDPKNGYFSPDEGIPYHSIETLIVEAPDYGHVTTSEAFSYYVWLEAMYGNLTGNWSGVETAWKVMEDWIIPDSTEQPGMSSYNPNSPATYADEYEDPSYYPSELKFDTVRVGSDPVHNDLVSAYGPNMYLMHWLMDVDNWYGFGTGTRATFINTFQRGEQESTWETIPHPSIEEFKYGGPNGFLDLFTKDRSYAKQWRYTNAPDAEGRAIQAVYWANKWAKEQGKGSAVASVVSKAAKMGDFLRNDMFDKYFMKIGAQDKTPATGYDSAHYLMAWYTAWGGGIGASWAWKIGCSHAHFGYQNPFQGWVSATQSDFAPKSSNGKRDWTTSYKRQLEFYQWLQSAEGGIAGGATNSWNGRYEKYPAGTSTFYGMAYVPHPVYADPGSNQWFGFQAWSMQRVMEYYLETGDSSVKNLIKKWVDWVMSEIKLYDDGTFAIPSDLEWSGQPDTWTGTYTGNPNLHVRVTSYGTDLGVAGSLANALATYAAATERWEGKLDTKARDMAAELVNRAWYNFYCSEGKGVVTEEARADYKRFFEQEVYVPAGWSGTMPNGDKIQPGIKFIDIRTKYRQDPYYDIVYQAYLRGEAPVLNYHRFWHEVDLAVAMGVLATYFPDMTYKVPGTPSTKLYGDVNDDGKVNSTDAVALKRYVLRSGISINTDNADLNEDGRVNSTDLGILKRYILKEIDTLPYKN

As usually defined, the stoichiometry N is the number of molecules, sites or subunits per partner or assembly. Turning to “CDP-CtDoc (from UniProt A3DH67 673-741) (enzyme)”, in assay [1], the stoichiometry N was found to be 1. In assay [2], this substance displayed a specific activity of RAC immobilized CBM3-Scaf3/CDP-CtDoc; 0.5 mL cell lysate supernatant of CBM3-Scaf3 mixed with different volumes of CDP-CtDoc supernatant, highest at 1 mL, no increase with excess of 0.72 U mL^−1.

Consider PGM-CcsDoc (enzyme), for which the stoichiometry N in assay [1] came out at 1. Also, in assay [2], the specific activity of RAC immobilized CBM3-Scaf3/PGM-CcsDoc; 0.5 mL cell lysate supernatant of CBM3-Scaf3 mixed with PGM-CcsDoc supernatant, highest at 2 mL was found to be 23 U mL^−1.

“PGM-RfDoc (from UniProt Q9AE53 787-879) (enzyme)”: the stoichiometry N in assay [1] turned out to be 1. The specific activity of RAC immobilized CBM3-Scaf3/PGM-RfDoc; 0.5 mL cell lysate supernatant of CBM3-Scaf3 mixed with PGM-RfDoc supernatant, highest at 2 mL in assay [2] is 22.4 U mL^−1.

In the case of “CDP-RfDoc (from UniProt Q9AE53 787-879) (enzyme)”, in assay [1], the stoichiometry N was 1. The substance also displayed a specific activity of RAC immobilized CBM3-Scaf3/CDP-RfDoc; 0.5 mL cell lysate supernatant of CBM3-Scaf3 mixed with CDP-RfDoc supernatant, highest at 2 mL in assay [2] of 0.71 U mL^−1.
